Consider 25 molecules from patent publication US20220153853A1 (JIANGSU HENGRUI MEDICINE, published 2022).

First the molecules themselves.
B1: ch1810 (antibody, human IgG4 S228P, kappa, F234A L235A, V domains shown)
VH: QVQLQQSGTELARPGTSVTLSCKASGYTFTNYAISWVKQRTGQGLEWIGEIYPTSGNTYYNEKFKGKATLTADRSSKTMYMELRSLTSVDSAVYFCASGVITTVVSTDYFDYWGQGSPLTVSS
VL: DIQMTQIPSSLSVSLGDRVTISCRASLDISNYLNWYQLKPDGTVKLLIYYTSTLHSGVSSRFSGSGSGTEYSLTISNLEQEDIATYFCQQGNMVPYTFGGGTKLEIKR
B2: ch1803 (antibody, human IgG4 S228P, kappa, F234A L235A, V domains shown)
VH: QFQLHQSGAELVKPGASVKLSCKATGYTFTDYWIEWVKQRPGHGLEWIGEILPGSTYTNYNEKFKGRATFTAEPSSSSAYMQLSGLTTEDSAIYYCSRGLSTLMAVDYFDYWGQGTTLTVSS
VL: DIQMTQTTSSLSASLGDRVTINCRASQDISNYLNWYQQKPDGTVKLLIYYSSTLHSGVPSRFSGSGSGTDYSLTISHLEQEDIATYFCQQTNIFPWTFGGGTKLEIRT
notes: IgG4-AA / kappa chimeric antibody
B3: ch1817 (antibody, human IgG4 S228P, kappa, F234A L235A, V domains shown)
VH: EVQLVESGGDLVQPGRSMKLSCAASGFTFSNYYMAWVRQAPTKGLEWVASISTGGVNTYYRDSVKGRFTISRDNAKNNLYLQMDSLRSEETATYYCARHTTADYFYGIYFALDAWGQGTSVTVSS
VL: QFTLTQPKSVSGSLRSTITIPCERSSGDIGDSYVNWYQQHLGRPPLNVIYADVQRPSEVSDRFSGSIDSSSNSASLTITNLQMDDEADYFCQSYDTNIDIIFGGGTKLTVLR
notes: as for B2
B4: hu1803-1 (antibody, human IgG4 S228P, kappa, F234A L235A, V domains shown)
VH: EVQLVQSGAEVKKPGASVKVSCKASGYTFTDYWIEWVRQAPGQGLEWMGEILPGSTYTNYNEKFKGRVTMTRDTSTSTVYMELSSLRSEDTAVYYCARGLSTLMAVDYFDYWGQGTTVTVSS
VL: DIQMTQSPSSLSASVGDRVTITCRASQDISNYLNWYQQKPGKAPKLLIYYSSTLHSGVPSRFSGSGSGTDFTLTISSLQPEDFATYYCQQTNIFPWTFGGGTKVEIKR
B5: hu1810-1 (antibody, human IgG4 S228P, kappa, F234A L235A, V domains shown)
VH: QVQLVQSGAEVKKPGSSVKVSCKASGGTFSNYAISWVRQAPGQGLEWMGEIYPTSGNTYYNEKFKGRVTITADKSTSTAYMELSSLRSEDTAVYYCARGVITTVVSTDYFDYWGQGTLVTVSS
VL: B4 VL with Q27L, S51T, T91G, I93M, F94V, W96Y
B6: hu1803-6 (antibody, human IgG4 S228P, kappa, F234A L235A, V domains shown)
VH: B4 VH with M70F, R72A, V79A
VL: B4 VL with K42G, P44V, F71Y, Y87F
B7: hu1810-7 (antibody, human IgG4 S228P, kappa, F234A L235A, V domains shown)
VH: B5 VH with M48I, V68A, I70L, K74R, A79M, R98S
VL: B4 VL with Q27L, P44V, S51T, P59S, F71Y, T91G, I93M, F94V, W96Y
B8: hu1803-7 (antibody, human IgG4 S228P, kappa, F234A L235A, V domains shown)
VH: B4 VH with M48I, V68A, M70F, R72A, V79A, A97S
VL: B4 VL with K42G, P44V, F71Y, Y87F
B9: hu1803-4 (antibody, human IgG4 S228P, kappa, F234A L235A, V domains shown)
VH: B4 VH with R38K, M48I, V68A, M70F, R72A, T74P, V79A, A97S
VL: B4 VL
B10: hu1810-5 (antibody, human IgG4 S228P, kappa, F234A L235A, V domains shown)
VH: B5 VH
VL: B4 VL with Q27L, P44V, S51T, P59S, F71Y, T91G, I93M, F94V, W96Y
B11: hu1803-3 (antibody, human IgG4 S228P, kappa, F234A L235A, V domains shown)
VH: B4 VH with M48I, V68A, M70F, R72A, V79A, A97S
VL: B4 VL
B12: hu1803-12 (antibody, human IgG4 S228P, kappa, F234A L235A, V domains shown)
VH: B4 VH with R38K, M48I, V68A, M70F, R72A, T74P, V79A, A97S
VL: B4 VL with P44V, F71Y
B13: hu1803-5 (antibody, human IgG4 S228P, kappa, F234A L235A, V domains shown)
VH: B4 VH
VL: B4 VL with K42G, P44V, F71Y, Y87F
B14: hu1803-2 (antibody, human IgG4 S228P, kappa, F234A L235A, V domains shown)
VH: B4 VH with M70F, R72A, V79A
VL: B4 VL
B15: hu1810-2 (antibody, human IgG4 S228P, kappa, F234A L235A, V domains shown)
VH: B5 VH with K74R, A79M, R98S
VL: B4 VL with Q27L, S51T, T91G, I93M, F94V, W96Y
B16: hu1810-3 (antibody, human IgG4 S228P, kappa, F234A L235A, V domains shown)
VH: B5 VH with M48I, V68A, I70L, K74R, A79M, R98S
VL: B4 VL with Q27L, S51T, T91G, I93M, F94V, W96Y
B17: hu1810-6 (antibody, human IgG4 S228P, kappa, F234A L235A, V domains shown)
VH: B5 VH with K74R, A79M, R98S
VL: B4 VL with Q27L, P44V, S51T, P59S, F71Y, T91G, I93M, F94V, W96Y
B18: hu1810-8 (antibody, human IgG4 S228P, kappa, F234A L235A, V domains shown)
VH: B5 VH with R38K, M48I, R67K, V68A, I70L, K74R, A79M, R98S
VL: B4 VL with Q27L, P44V, S51T, P59S, F71Y, T91G, I93M, F94V, W96Y
B19: hu1803-11 (antibody, human IgG4 S228P, kappa, F234A L235A, V domains shown)
VH: B4 VH with M48I, V68A, M70F, R72A, V79A, A97S
VL: B4 VL with P44V, F71Y
B20: hu1810-4 (antibody, human IgG4 S228P, kappa, F234A L235A, V domains shown)
VH: B5 VH with R38K, M48I, R67K, V68A, I70L, K74R, A79M, R98S
VL: B4 VL with Q27L, S51T, T91G, I93M, F94V, W96Y
B21: hu1803-8 (antibody, human IgG4 S228P, kappa, F234A L235A, V domains shown)
VH: B4 VH with R38K, M48I, V68A, M70F, R72A, T74P, V79A, A97S
VL: B4 VL with K42G, P44V, F71Y, Y87F
B22: hu1803-10 (antibody, human IgG4 S228P, kappa, F234A L235A, V domains shown)
VH: B4 VH with M70F, R72A, V79A
VL: B4 VL with P44V, F71Y
B23: hu1810-9 (antibody, human IgG4 S228P, kappa, F234A L235A, V domains shown)
VH: B5 VH
VL: DIQMTQSPSSLSASVGDRVTITCRASLDISNYLNWYQLKPGKAVKLLIYYTSTLHSGVSSRFSGSGSGTEYTLTISSLQPEDFATYYCQQGNMVPYTFGGGTKVEIKR
B24: hu1810-11 (antibody, human IgG4 S228P, kappa, F234A L235A, V domains shown)
VH: B5 VH with M48I, V68A, I70L, K74R, A79M, R98S
VL: B23 VL
B25: hu1810-10 (antibody, human IgG4 S228P, kappa, F234A L235A, V domains shown)
VH: B5 VH with K74R, A79M, R98S
VL: B23 VL

Positions count from the first letter of the chain named.

T2 sequence (Q61606 27-485): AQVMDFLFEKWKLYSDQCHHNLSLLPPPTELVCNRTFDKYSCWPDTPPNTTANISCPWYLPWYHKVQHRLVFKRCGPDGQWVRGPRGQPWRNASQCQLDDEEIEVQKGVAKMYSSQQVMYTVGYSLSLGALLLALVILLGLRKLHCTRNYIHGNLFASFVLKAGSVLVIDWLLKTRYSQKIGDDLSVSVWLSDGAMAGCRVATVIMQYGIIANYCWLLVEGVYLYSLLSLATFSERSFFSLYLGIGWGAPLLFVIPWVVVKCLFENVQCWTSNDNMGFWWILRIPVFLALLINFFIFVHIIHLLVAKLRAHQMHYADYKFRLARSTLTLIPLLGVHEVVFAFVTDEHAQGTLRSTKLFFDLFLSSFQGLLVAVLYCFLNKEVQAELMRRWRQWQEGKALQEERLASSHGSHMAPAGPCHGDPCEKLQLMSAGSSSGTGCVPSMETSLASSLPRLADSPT

The target in the first assay is T1, human GCGR (full-length glucagon receptor of 477 amino acids) (human, UniProt P47871 26-477). The assay can be described thus: cell-based or functional assay.
T1 sequence (P47871 26-477 limits assumed): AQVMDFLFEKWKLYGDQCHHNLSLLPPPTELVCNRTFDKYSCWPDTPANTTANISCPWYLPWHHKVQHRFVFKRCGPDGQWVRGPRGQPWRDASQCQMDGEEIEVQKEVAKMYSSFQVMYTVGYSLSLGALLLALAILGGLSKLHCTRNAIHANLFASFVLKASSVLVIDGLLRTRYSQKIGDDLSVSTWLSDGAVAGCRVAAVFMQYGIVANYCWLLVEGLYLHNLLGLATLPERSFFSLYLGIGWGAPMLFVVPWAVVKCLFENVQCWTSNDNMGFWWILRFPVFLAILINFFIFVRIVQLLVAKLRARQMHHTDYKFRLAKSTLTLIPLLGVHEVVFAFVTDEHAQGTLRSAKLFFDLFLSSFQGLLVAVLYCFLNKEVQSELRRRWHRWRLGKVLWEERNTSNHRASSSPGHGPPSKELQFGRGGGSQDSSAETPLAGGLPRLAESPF
For the molecule B1, the “IC50” value was determined as 72.5 nM and the Imax was determined as 100%.

For the molecule B2, the “IC50” value was 79.3 nM and the Imax worked out at 100%.

Consider B3, for which the “IC50” value came to 59.8 nM and the Imax came out at 83%.

The next assay addresses T2, Mouse GCGR (mouse, UniProt Q61606 27-485). The assay can be described thus: cell-based or functional assay.
For the molecule B2, the “IC50” value was 24.7 nM and the “Imax (%)” value amounted to 93%.

Regarding B3, 12.8 nM corresponded to half-maximal inhibition (IC50) and the “Imax (%)” value was 96%.

Another assay has as its target T1, human GCGR (full-length glucagon …). As to the kind of experiment: cell-based or functional assay. This is another data set of the same source.
Take B4: the “IC50” value stood at 191 nM and the Imax was 91.8%.

In the case of B5, the “IC50” value was 189 nM and the Imax stood at 83.2%.

In the case of B6, the “IC50” value amounted to 77.5 nM and the Imax was 100%.

B7: half-maximal inhibition (IC50) required 119 nM and the Imax amounted to 100%.

For the molecule B8, the “IC50” value was 73 nM and the Imax is 100%.

On to B9, for which the “IC50” value came out at 140 nM and the Imax was found to be 100%.

In the case of B10, the “IC50” value was determined as 216 nM and the Imax was 86.4%.

For the molecule B11, the “IC50” value turned out to be 110 nM and the Imax is 96.7%.

B12: the “IC50” value came to 86.9 nM and the Imax is 100%.

Regarding B13, the “IC50” value turned out to be 79 nM and the Imax came out at 100%.

B14: the “IC50” value came to 137 nM and the Imax was determined as 98.5%.

As for B15, the “IC50” value was 106 nM and the Imax turned out to be 100%.

Consider B16, for which the “IC50” value worked out at 192 nM and the Imax turned out to be 95.4%.

As to B17, the “IC50” value amounted to 157 nM and the Imax amounted to 100%.

B18: the “IC50” value came out at 133 nM and the Imax was 100%.

For B19, the “IC50” value worked out at 88.7 nM and the Imax worked out at 100%.

For B20, half-maximal inhibition (IC50) was put at 138 nM and the Imax stood at 99.1%.

On to B21, for which the “IC50” value is 85.9 nM and the Imax was 100%.

Take B22: the “IC50” value stood at 76.7 nM and the Imax came to 100%.

On to B23, for which the “IC50” value is 125 nM and the Imax is 90.4%.

Consider B24, for which inhibition was half-maximal at 91.3 nM (IC50) and the Imax was found to be 99.6%.

Take B25: the “IC50” value came out at 95.6 nM and the Imax was 97.4%.

For a further assay the target is unchanged. The assay can be described thus: cell ELISA on fixed CHO cells overexpressing GCGR. The protocol:
(§1) The expression levels of GCGR were detected after two weeks of pressure screening, After the GCGR-overexpressing cells were fixed to the bottom of 96-well plate, the antibodies were added and the signal strength was used to determine the binding activity of the antibody to GCGR overexpressing CHO cells. The binding abilities of the antibody to the three species of GCGRs were detected with the same binding assay. As an example, the binding of the GCGR antibodies to human GCGR was detected by an assay specifically described as follows:
(§2) The cells were seeded in a 96-well plate at a density of 0.9-1.0×10⁶/ml, 100 μl/well and cultured overnight. The supernatant was discarded, the plate was washed three times with PBS, 100 μl/well of cell immune fixed solution (Beyotime, Cat No. P0098) was added and fixed for an hour at room temperature, and washed four times with PBS. The liquid was discarded, 200 μl/well blocking solution (5% skim milk (BD skim milk, Cat Wo. 232100) diluted with PBS) was added, and incubated in an incubator at 37° C. for 3 hours for blocking. After the blocking was finished, the blocking solution was discarded, the plate was washed 3 times with PBST buffer (PBS comprising 0.05% tweenW-20, pH7.4), 50 μl/well of various concentrations of each of the test antibodies (antibodies purified from hybridoma, chimeric antibodies or humanized antibodies) diluted with sample dilution solution were added, and incubated in an incubator at 37° C. for 2 hours. After the incubation was finished, the plate was washed 3 times with PBST, 50 μl/well of HRP-labeled goat anti-mouse secondary antibody (JacksoW ImmuWo Research, Cat No. 115-035-003) or goat anti-human secondary antibody (JacksoW ImmuWo Research, Cat Wo. 109-035-003) diluted with sample dilution solution was added, and incubated at 37° C. for 1 hour. The plate was washed 3 times with PBST, 50 μl/well of TMB chromogenic substrate (KPL, Cat Wo. 52-00-03) was added, incubated at room temperature for 10 min, and 50 μl/well of 1M H₂SO4 was added to stop the reaction. The absorbance value was read by a microplate reader (Thermo scientific Multiskan MK3) at a wavelength of 450 nm, and the data was analyzed with GraphPad Prism 5. The binding of GCGR chimeric antibodies to GCGR-overepressing CHO cells was calculated as EC50 value.
(An ELISA detects its analyte on a solid surface through an enzyme-linked reagent.)
Molecule B1 came in with an EC50 of 0.117 nM.

The molecule B2 returned an EC50 of 0.117 nM.

B3 yielded an EC50 of 0.193 nM.

For another assay, the target named is T2, Mouse GCGR. The assay can be described thus: cell ELISA on fixed CHO cells overexpressing GCGR. As to the method:
as §1, §2
Molecule B1 gave an EC50 of 0.442 nM.

The molecule B2 came in with an EC50 of 0.718 nM.

For B3, the EC50 came to 0.164 nM.

The target in the next assay is T3, Cynomolgus monkey GCGR (cynomolgus monkey).
T3 construct: whole, on cells; also called cynomolgus GCGR
The assay can be described thus: cell ELISA on fixed CHO cells overexpressing GCGR. As to the method:
as §1, §2
Turning to B1, the EC50 amounted to 0.248 nM.

As to B2, the EC50 was 0.213 nM.

Molecule B3 yielded an EC50 of 0.297 nM.

Broadly, the IC50 is the concentration needed to halve the response being measured. Broadly, the EC50 is the concentration at which the effect is half-maximal.
